Data from PMC7586906, “Development and characterization of specific anti‐Usutu virus chicken‐derived single chain variable fragment antibodies” (Protein Science : A Publication of the Protein Society, 2020).
Several values for one entry are separate records, joined by “and”; a condition that tells them apart may be missing. Equal entries are not always repeated.

Tests used:
[1] = molecular target: T1, USUV strain Vienna-2001 whole virus (E protein on virions) (Usutu virus Vienna-2001, UniProt Q5WPU5, strain); test: ELISA; virus ELISA: PEG-precipitated USUV Vienna-2001 (8.1 × 10^6 pfu in 50 μl) coated on the plate, blocked with 5% BSA, scFv 2.5-20 μg/ml for 1 hr at 37°C, detected by HRP anti-His, 450 nm; conditions: one partner purified
T1 construct: envelope (E) protein of Usutu virus strain Vienna-2001, cut from the polyprotein, as it stands on whole virions coated on the plate; The assay used whole virus; The other proteins of the virion are not written; also called USUV Vienna-2001; source: virus expanded in C6/36 cells, precipitated with 8% PEG8000, resuspended in NTE buffer

[2] = molecular target: T2, soluble E (sE) protein of USUV strain Bologna-2009 (Usutu virus strain Bologna-2009, UniProt R4HE74, strain); test: far-Western, overlay or dot blot; western blot at one amount: 0.5 μg of E protein DIII and 0.5 or 0.25 μg of sE per well on a 15% SDS gel, probed with 5 μg of scFv in 10 ml PBST, then mouse anti-HA and HRP goat anti-mouse; conditions: both partners purified
T2 construct: also called sE of USUV; USUV sE; source: Drosophila S2 cells, provided by Prof; Karin Stiasny and Lena Roßbacher

[3] = molecular target: T3, soluble E (sE) protein of WNV strain NY-1999 (West Nile virus NY-1999 (NY99), UniProt Q9Q6P4, strain); test: as above; conditions: both partners purified
T3 construct: whole ectodomain of the envelope (E) protein of West Nile virus strain NY-1999 (NY99); also called sE of WNV; WNV NY99 sE; source: Drosophila S2 cells, provided by Prof; Karin Stiasny and Lena Roßbacher

[4] = molecular target: T4, USUV E protein DIII group B (Usutu virus, sequence group B, strain); test: SPR; Biacore T200; scFv captured by its His-tag on a CM5 chip (His Capture Kit), E protein DIII as analyte in two-fold dilutions (31-2,000 nM; WNV also 100-32,000 nM), multi-cycle kinetics, 25°C, PBS with 0.05% Tween 20, 30 μl/min; 1:1 kinetic fit (legend of Figure 4), steady-state affinity model named for KD in the methods; conditions: both partners purified
T4 construct: 103 amino acids, 11.0 kDa; also called USUV B; USUV DIII group B
T4 chain: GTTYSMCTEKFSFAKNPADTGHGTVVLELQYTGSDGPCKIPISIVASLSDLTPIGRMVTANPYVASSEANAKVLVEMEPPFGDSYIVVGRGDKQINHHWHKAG

[5] = molecular target: T5, USUV E protein DIII group I (Usutu virus, sequence group I, strain); test: as above; conditions: both partners purified
T5 construct: 103 amino acids, 10.9 kDa; also called USUV I; USUV DIII group I
T5 chain: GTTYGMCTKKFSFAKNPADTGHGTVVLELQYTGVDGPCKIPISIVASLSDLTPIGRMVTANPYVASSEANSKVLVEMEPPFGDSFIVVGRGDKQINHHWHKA

WNV E protein DIII = molecular target: T6, WNV E protein DIII (West Nile virus NY99 (also called 2741), strain); test: as above; conditions: both partners purified
T6 construct: domain III of the envelope (E) protein of West Nile virus; 103 amino acids, 10.9 kDa; also called WNV DIII; WNV E protein DIII NY99 strain
T6 chain: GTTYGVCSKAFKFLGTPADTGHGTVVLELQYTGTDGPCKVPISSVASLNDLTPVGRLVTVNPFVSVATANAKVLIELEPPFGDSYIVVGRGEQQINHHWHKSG

B1: scFv A9 (scFv, V domains shown)
VH: AVTLDESGGGLQTPGGTLSLVCKASGFTFSSVNMFWVRQAPGKGLEYVASISNTGSSTNYGAAVKGRATISRDNGQSTVRLQLNNLRAEDTATYFCAKDAYGYSFTVTPGYTIDAWGHGTEVIVSS
VL: ALTQPSSVSANLGGTVKITCSGGGGSYGWYQQKSPGSAPVTVIYENTKRPSNIPSRFSGSKSGSTSTLTITGVQAEDEAVYYCGSTDNNNIFGAGTTLTVL
notes: chicken light chain variable region (V lambda) of A9, N-terminal part of the scFv; long linker between V lambda and VH; chicken heavy chain variable region (VH) of A9; From a chicken immune phage display library in pComb3XSS; also called cross-reactive scFv; source: E. coli TOP10, purified (IMAC, HisTrap FF); not shown: His6, C-terminal, kept; HA, C-terminal, kept
binding result [1]: binds
binding result [2]: binds
binding result [3]: binds
Kd [4]: 410 nM and 360 nM
koff [4]: 0.062 s⁻¹ and 0.059 s⁻¹
kon [4]: 152000 M⁻¹ s⁻¹ and 166000 M⁻¹ s⁻¹
Kd [5]: 290 nM and 300 nM
koff [5]: 0.05 s⁻¹ and 0.048 s⁻¹
kon [5]: 170000 M⁻¹ s⁻¹ and 168000 M⁻¹ s⁻¹
Kd (WNV E protein DIII): 100 nM
koff (WNV E protein DIII): 0.105 s⁻¹ and 0.094 s⁻¹
kon (WNV E protein DIII): 1.04e+06 M⁻¹ s⁻¹ and 970000 M⁻¹ s⁻¹

B2: scFv A8 (scFv, V domains shown)
VH: AVTLDESGGGLQTPGGGLSLVCKASGFTMSSYHMGWVRQAPGKGLEYVVGIDNTGRYTDYGAAVKGRATISRDNGQSTLRLQLNNLRAEDTGTYFCAKSAYLGRGCWDAELCAGEIDAWGHGTEVIVSS
VL: ALTQPSSVSANLGGTVKITCSGGYSGYGWYQQKSPGSAPVTLIYDNTKRPSDIPSRFSGSKSGSTGTLTITGVQAEDEAVYYCGSGDSRNYVGIFGAGTTLTVR
notes: chicken light chain variable region (V lambda) of A8, N-terminal part of the scFv; long linker between V lambda and VH; chicken heavy chain variable region (VH) of A8; From a chicken immune phage display library in pComb3XSS; source: E. coli TOP10, purified (IMAC, HisTrap FF); not shown: His6, C-terminal, kept; HA, C-terminal, kept
binding result [1]: binds
Kd [4]: 100 nM
koff [4]: 0.002 s⁻¹
kon [4]: 20000 M⁻¹ s⁻¹
Kd [5]: 60 nM
koff [5]: 0.001 s⁻¹
kon [5]: 19800 M⁻¹ s⁻¹

B3: scFv A12 (scFv, V domains shown)
VH: AVTLDESGGGLQTPGGALSLVCKASGFTFSSYHMGWVRQAPGKGLEYVAGIDNTGRYTDYGAAVKGRATISRDNGQSTLRLQLNNLRAEDTGTYFCAKSAYLGRGCWGAELCAGEIDTWGHGTEVIVSS
VL: ALTQPSSVSANPGETVQITCSGSSNKYGNNYGWYQQKSPGSAPVTVIYDDDKRPSDIPPRFSGSKSGSTNTLTITGVQADDEAVYFCGAYDNSDSGIFGAGTALTVL
notes: chicken light chain variable region (V lambda) of A12, N-terminal part of the scFv; long linker between V lambda and VH; chicken heavy chain variable region (VH) of A12; From a chicken immune phage display library in pComb3XSS; source: E. coli TOP10, purified (IMAC, HisTrap FF); not shown: His6, C-terminal, kept; HA, C-terminal, kept
binding result [1]: binds
Kd [4]: 300 nM and 290 nM
koff [4]: 0.012 s⁻¹ and 0.01 s⁻¹
kon [4]: 39600 M⁻¹ s⁻¹ and 34200 M⁻¹ s⁻¹
Kd [5]: 140 nM and 130 nM
koff [5]: 0.007 s⁻¹ and 0.006 s⁻¹
kon [5]: 48600 M⁻¹ s⁻¹ and 46600 M⁻¹ s⁻¹

B4: scFv G1 (scFv, V domains shown)
VH: AVTLDESGGGLQTPGGGLSLVCKASGFDFSRYGMNWVRQAPGKGLEWVAGISPDGSGTWYATAVKGRATISRDNGQSTVRLQLNNLRAEDTATYYCTRGNGDSFDAWGHGTEVIVSS
VL: ALTQPSSVSANLGGTVKITCSGGSYSYGWYQQKSPGSAPVTVIYYNDKRPSDIPSRFSGSKSGSTGTLTITGVQADDEAVYFCGGFDSSAGYVGIFGAGTTLTVL
notes: chicken light chain variable region (V lambda) of G1, N-terminal part of the scFv; long linker between V lambda and VH; From a chicken immune phage display library in pComb3XSS; Could not be held stably on the SPR chip; source: E. coli TOP10, purified (IMAC, HisTrap FF); not shown: His6, C-terminal, kept; HA, C-terminal, kept
binding result [1]: binds
binding result [2]: binds

B5: scFv D2.2 (scFv, V domains shown)
VH: AVTLDESGGGLQTPGGALSLVCKGSGFTFSSHAMMWVRQAPGKGLEWVAGISRDGSTYYGAAVKGRATISRDDGQSTVRLQLNNLRAEDTGTYFCAKDVYGYCDTISGCEAGTIDAWGHGTEVIVSS
VL: ALTQPSSVSANLGETVKITCSGSSGSYGWYQQKSPGSAPVTVIYYNDKRPSDIPSRFSGSKSGSTGTLTITGVQADDEAVYFCGSEDSSSTYAGIFGAGTTLTVL
notes: chicken light chain variable region (V lambda) of D2.2, N-terminal part of the scFv; long linker between V lambda and VH; chicken heavy chain variable region (VH) of D2.2; From a chicken immune phage display library in pComb3XSS; source: E. coli TOP10, purified (IMAC, HisTrap FF); not shown: His6, C-terminal, kept; HA, C-terminal, kept
binding result [1]: binds
Kd [4]: 230 nM and 250 nM
koff [4]: 0.074 s⁻¹ and 0.069 s⁻¹
kon [4]: 326000 M⁻¹ s⁻¹ and 273000 M⁻¹ s⁻¹
